This passage reports Kd results from article PMC10786891, “Massively parallel profiling of RNA-targeting CRISPR-Cas13d”.

First the molecules themselves.
T1: EsCas13d, nuclease-dead (Eubacterium siraeum, UniProt B0MS50, R295A;H300A;R849A;H854A)
T1 sequence: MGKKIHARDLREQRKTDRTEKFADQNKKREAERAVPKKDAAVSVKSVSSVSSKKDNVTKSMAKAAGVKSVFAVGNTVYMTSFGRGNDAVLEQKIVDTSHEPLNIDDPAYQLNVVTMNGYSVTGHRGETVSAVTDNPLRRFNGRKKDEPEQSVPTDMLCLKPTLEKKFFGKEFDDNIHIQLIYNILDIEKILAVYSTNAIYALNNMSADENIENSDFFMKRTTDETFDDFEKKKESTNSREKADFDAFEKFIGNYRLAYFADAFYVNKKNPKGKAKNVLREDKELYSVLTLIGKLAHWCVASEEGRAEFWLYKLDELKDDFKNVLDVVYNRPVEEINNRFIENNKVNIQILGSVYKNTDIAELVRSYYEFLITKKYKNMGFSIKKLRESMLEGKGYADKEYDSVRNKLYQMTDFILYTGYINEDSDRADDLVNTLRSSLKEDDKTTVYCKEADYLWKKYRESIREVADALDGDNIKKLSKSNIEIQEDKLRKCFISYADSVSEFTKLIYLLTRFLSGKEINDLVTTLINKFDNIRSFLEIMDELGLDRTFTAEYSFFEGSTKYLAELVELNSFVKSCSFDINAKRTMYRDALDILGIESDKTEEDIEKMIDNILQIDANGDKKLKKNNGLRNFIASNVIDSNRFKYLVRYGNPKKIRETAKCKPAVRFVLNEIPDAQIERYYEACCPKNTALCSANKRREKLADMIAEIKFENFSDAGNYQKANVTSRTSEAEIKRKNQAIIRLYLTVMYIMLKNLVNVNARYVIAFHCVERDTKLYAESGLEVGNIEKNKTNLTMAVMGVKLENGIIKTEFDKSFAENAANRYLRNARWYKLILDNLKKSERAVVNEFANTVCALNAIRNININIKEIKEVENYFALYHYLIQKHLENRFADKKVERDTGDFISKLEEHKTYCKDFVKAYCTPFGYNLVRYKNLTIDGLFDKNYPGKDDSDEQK

B1: target 1 G12A,A18U (mixed)
RNA 1: CACCCGUGCAAAAAUGCAGGGGUCUAAAACUGAGCGGAUAACCUCUCUAUGG
RNA 2: GGGAAUGGAUCCACAUCUACGAAUUCGUACCAUUGAGAGAUUAUCCGCUCACCGAGAUCGGAAGAGCACACGU
B2: target 1 insA 3' of 17,insG 3' of 3 (mixed)
RNA 1: CACCCGUGCAAAAAUGCAGGGGUCUAAAACUGAGCGGAUAACCUCUCUAUGG
RNA 2: GGGAAUGGAUCCACAUCUACGAAUUCGUACCAUAGAAGAGGUUAUCCGCUGCACCGAGAUCGGAAGAGCACACGU
B3: target 1 insC 3' of 12,insU 3' of 4 (mixed)
RNA 1: CACCCGUGCAAAAAUGCAGGGGUCUAAAACUGAGCGGAUAACCUCUCUAUGG
RNA 2: GGGAAUGGAUCCACAUCUACGAAUUCGUACCAUAGAGAGGCUUAUCCGCUUCACCGAGAUCGGAAGAGCACACGU
B4: target 3 G4U,C6G (mixed)
RNA 1: CACCCGUGCAAAAUUGCAGGGGUCUAAAACGACCUGAAUAUUUCAGAUCAAA
RNA 2: GGGAAUGGAUCCACAUCUACGAAUUCGUUUUUGAUCUGAAAUAUUGAUGUCUGCAGAUCGGAAGAGCACACGU
B5: target 3 insA 3' of 22 (mixed)
RNA 1: CACCCGUGCAAAAUUGCAGGGGUCUAAAACGACCUGAAUAUUUCAGAUCAAA
RNA 2: GGGAAUGGAUCCACAUCUACGAAUUCGUUUAUUGAUCUGAAAUAUUCAGGUCUGCAGAUCGGAAGAGCACACGU
B6: target 3 G3C,U21A (mixed)
RNA 1: CACCCGUGCAAAAUUGCAGGGGUCUAAAACGACCUGAAUAUUUCAGAUCAAA
RNA 2: GGGAAUGGAUCCACAUCUACGAAUUCGUUUAUGAUCUGAAAUAUUCAGCUCUGCAGAUCGGAAGAGCACACGU
B7: target 3 insA 3' of 6,insU 3' of 3 (mixed)
RNA 1: CACCCGUGCAAAAUUGCAGGGGUCUAAAACGACCUGAAUAUUUCAGAUCAAA
RNA 2: GGGAAUGGAUCCACAUCUACGAAUUCGUUUUUGAUCUGAAAUAUUCAAGGUUCUGCAGAUCGGAAGAGCACACGU
B8: target 3 C1U,G3C (mixed)
RNA 1: CACCCGUGCAAAAUUGCAGGGGUCUAAAACGACCUGAAUAUUUCAGAUCAAA
RNA 2: GGGAAUGGAUCCACAUCUACGAAUUCGUUUUUGAUCUGAAAUAUUCAGCUUUGCAGAUCGGAAGAGCACACGU
B9: target 3 C1A (mixed)
RNA 1: CACCCGUGCAAAAUUGCAGGGGUCUAAAACGACCUGAAUAUUUCAGAUCAAA
RNA 2: GGGAAUGGAUCCACAUCUACGAAUUCGUUUUUGAUCUGAAAUAUUCAGGUAUGCAGAUCGGAAGAGCACACGU
B10: target 3 insA 3' of 20,insC 3' of 20 (mixed)
RNA 1: CACCCGUGCAAAAUUGCAGGGGUCUAAAACGACCUGAAUAUUUCAGAUCAAA
RNA 2: GGGAAUGGAUCCACAUCUACGAAUUCGUUUUUACGAUCUGAAAUAUUCAGGUCUGCAGAUCGGAAGAGCACACGU
B11: target 3 C1A,A18G (mixed)
RNA 1: CACCCGUGCAAAAUUGCAGGGGUCUAAAACGACCUGAAUAUUUCAGAUCAAA
RNA 2: GGGAAUGGAUCCACAUCUACGAAUUCGUUUUUGGUCUGAAAUAUUCAGGUAUGCAGAUCGGAAGAGCACACGU
B12: target 3 U2G,U7G (mixed)
RNA 1: CACCCGUGCAAAAUUGCAGGGGUCUAAAACGACCUGAAUAUUUCAGAUCAAA
RNA 2: GGGAAUGGAUCCACAUCUACGAAUUCGUUUUUGAUCUGAAAUAUGCAGGGCUGCAGAUCGGAAGAGCACACGU
B13: target 3 G3C,A5U (mixed)
RNA 1: CACCCGUGCAAAAUUGCAGGGGUCUAAAACGACCUGAAUAUUUCAGAUCAAA
RNA 2: GGGAAUGGAUCCACAUCUACGAAUUCGUUUUUGAUCUGAAAUAUUCUGCUCUGCAGAUCGGAAGAGCACACGU
B14: target 3 insG 3' of 7,insU 3' of 6 (mixed)
RNA 1: CACCCGUGCAAAAUUGCAGGGGUCUAAAACGACCUGAAUAUUUCAGAUCAAA
RNA 2: GGGAAUGGAUCCACAUCUACGAAUUCGUUUUUGAUCUGAAAUAUUGCUAGGUCUGCAGAUCGGAAGAGCACACGU
B15: target 3 insC 3' of 5,insA 3' of 1 (mixed)
RNA 1: CACCCGUGCAAAAUUGCAGGGGUCUAAAACGACCUGAAUAUUUCAGAUCAAA
RNA 2: GGGAAUGGAUCCACAUCUACGAAUUCGUUUUUGAUCUGAAAUAUUCACGGUCAUGCAGAUCGGAAGAGCACACGU
B16: target 3 insU 3' of 11,insA 3' of 2 (mixed)
RNA 1: CACCCGUGCAAAAUUGCAGGGGUCUAAAACGACCUGAAUAUUUCAGAUCAAA
RNA 2: GGGAAUGGAUCCACAUCUACGAAUUCGUUUUUGAUCUGAAAUUAUUCAGGUACUGCAGAUCGGAAGAGCACACGU
B17: target 3 A18G (mixed)
RNA 1: CACCCGUGCAAAAUUGCAGGGGUCUAAAACGACCUGAAUAUUUCAGAUCAAA
RNA 2: GGGAAUGGAUCCACAUCUACGAAUUCGUUUUUGGUCUGAAAUAUUCAGGUCUGCAGAUCGGAAGAGCACACGU
B18: target 3 insC 3' of 7,insU 3' of 5 (mixed)
RNA 1: CACCCGUGCAAAAUUGCAGGGGUCUAAAACGACCUGAAUAUUUCAGAUCAAA
RNA 2: GGGAAUGGAUCCACAUCUACGAAUUCGUUUUUGAUCUGAAAUAUUCCAUGGUCUGCAGAUCGGAAGAGCACACGU
B19: target 3 insA 3' of 4,insU 3' of 4 (mixed)
RNA 1: CACCCGUGCAAAAUUGCAGGGGUCUAAAACGACCUGAAUAUUUCAGAUCAAA
RNA 2: GGGAAUGGAUCCACAUCUACGAAUUCGUUUUUGAUCUGAAAUAUUCAGAUGUCUGCAGAUCGGAAGAGCACACGU
B20: target 3 C1G,A18G (mixed)
RNA 1: CACCCGUGCAAAAUUGCAGGGGUCUAAAACGACCUGAAUAUUUCAGAUCAAA
RNA 2: GGGAAUGGAUCCACAUCUACGAAUUCGUUUUUGGUCUGAAAUAUUCAGGUGUGCAGAUCGGAAGAGCACACGU
B21: target 3 A9G,U22A (mixed)
RNA 1: CACCCGUGCAAAAUUGCAGGGGUCUAAAACGACCUGAAUAUUUCAGAUCAAA
RNA 2: GGGAAUGGAUCCACAUCUACGAAUUCGUUAUUGAUCUGAAAUGUUCAGGUCUGCAGAUCGGAAGAGCACACGU
B22: target 3 insC 3' of 21,insG 3' of 5 (mixed)
RNA 1: CACCCGUGCAAAAUUGCAGGGGUCUAAAACGACCUGAAUAUUUCAGAUCAAA
RNA 2: GGGAAUGGAUCCACAUCUACGAAUUCGUUUUCUGAUCUGAAAUAUUCAGGGUCUGCAGAUCGGAAGAGCACACGU
B23: target 3 C1G,U10A (mixed)
RNA 1: CACCCGUGCAAAAUUGCAGGGGUCUAAAACGACCUGAAUAUUUCAGAUCAAA
RNA 2: GGGAAUGGAUCCACAUCUACGAAUUCGUUUUUGAUCUGAAAAAUUCAGGUGUGCAGAUCGGAAGAGCACACGU

The Kd is the constant that tells how readily two partners part at equilibrium.

The data set concerns the target T1, EsCas13d, nuclease-dead. Briefly: crRNA (strand 1, pre-loaded); Mg2+; 40 mM Tris-HCl pH 7.5, 150 mM NaCl, 6 mM MgCl2, 1 mM DTT, 0.1% Tween-20, 0.2 mg/ml BSA; 25 C; 10 min per concentration, then washed. The following applies: tags: His6-TwinStrep-SUMO cleaved; N-terminal SNAP kept (SNAP-Surface 488); label: 3' end held by stalled T7 RNA polymerase.
B1 came in with a dissociation constant (Kd) of 25.2 ± 2.7 nM.

B2 yielded a Kd of 10.9 ± 0.6 nM.

B3 displayed an equilibrium dissociation constant (Kd) of 7.5 ± 0.8 nM.

Regarding B4, the affinity, expressed as Kd, was 68.5 ± 15 nM.

The molecule B5 came in with a Kd of 20.6 ± 3.4 nM.

B6 yielded a dissociation constant (Kd) of 72.5 ± 13.5 nM.

As for B7, the dissociation constant (Kd) came to 5.25 ± 0.5 nM.

Take B8: the dissociation constant (Kd) stood at 49.5 ± 15.5 nM.

B9 had a Kd of 20 ± 2.55 nM.

B10 showed an equilibrium dissociation constant (Kd) of roughly 110 nM.

As to B11, the Kd stood at 48.5 ± 14 nM.

For B12, the dissociation constant (Kd) stood at 20.9 ± 2.45 nM.

On to B13, for which the Kd is 25 ± 2.6 nM.

Molecule B14 registered a dissociation constant Kd of 20.1 ± 1.9 nM.

In turn, B15 yielded a Kd of 23.1 ± 4.05 nM.

B16 showed a dissociation constant (Kd) of 56.5 ± 8.5 nM.

B17 had an equilibrium dissociation constant (Kd) of 19.1 ± 1.7 nM.

In turn, B18 had a dissociation constant Kd of 57 ± 7.5 nM.

B19: the Kd is 44 ± 16 nM.

The molecule B20 came in with a Kd of 18.6 ± 2.6 nM.

Regarding B21, binding was characterised by a dissociation constant (Kd) of 27.6 ± 3.15 nM.

B22: binding was characterised by a dissociation constant (Kd) of 81 ± 15.5 nM.

In turn, B23 yielded a Kd of 43 ± 14 nM.
